# Laboratory results from the supplement of paper PMC12042874.
# ± gives the uncertainty stated by the source.
# Assay: amyloid nucleation score (Sup35N fusion, yeast selection) (log enrichment); library NNK2; higher = more nucleation; inactive = no reads after selection
# In short: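 The nucleation score equals the log enrichment of output over input reads from DiMSum, centred on the mode score of non-aggregating sequences. It was computed only for sequences with 100 or more input reads. The reads came from Illumina sequencing of plasmid inserts from psi-negative yeast expressing Sup35N fused to peptides of 20 random codons, induced with 100 μM copper sulfate for 24 hours and grown 7 days at 30°C without adenine and uracil.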
row,Substance,amyloid nucleation score
1,GFRDMGDHIDVREKFSWADA,inactive
2,LVSMLVFL,2.15 ± 0.15
3,LRIGRYQN,inactive
4,HEPGLPVRSCNVGRHSLSIL,0.522 ± 0.42
5,NTGVIYDAT,-0.307 ± 0.63
6,NDVNDLMGCTNQRGMYPQII,inactive
7,LVYESSDYFVNIIEDNLLVS,inactive
8,AWKAVY,-0.585 ± 0.63
9,DRICRVDIYDVRDQSYTFSG,-0.279 ± 0.29
10,IPSCRVFICRGNNVFRVPIT,-1.06 ± 1.1
11,MLDLNQFLCRGFKLTRPYGL,-0.155 ± 0.54
12,DVFWYDATTRYGGRCRGQIS,1.11 ± 0.31
13,QLNVSLNRLFLCGGSAELPS,7.55 ± 0.076
14,WGLGCMSQSTLHGSLISSVR,-0.5 ± 0.44
15,QIRAPHGGYVYYAGVATYSN,-0.206 ± 1.1
16,SLFLVRKDFMFCLTSLASVR,2.07 ± 0.16
17,WPKSAILIHCRVANGLCRFV,6.586 ± 0.046
18,SSYDLITIKEFIKSGRVK,-0.119 ± 0.35
19,QYVPVLGPACMQLMRYNCAD,-0.177 ± 0.4
20,LLTMGVGRVGAWEQN,0.801 ± 0.82
21,VDRMVDIMCTTKKMIHAF,1.45 ± 0.4
22,FNFGNDGYSFNIILWYQRYI,6.61 ± 0.063

row,Substance,amyloid nucleation score
1,GILWRGVLVRYVCPVVSTSI,inactive
2,RIQSSFFHCC,7.825 ± 0.036
3,LSNYARGRVDVTLKNYLLLE,0.476 ± 0.51
4,YVVVINSEQNVETFKGFL,inactive
5,WYTDPDSDVAHYFAPQLK,-0.693 ± 1.1
6,LDPTVPGVIANVPNRRLARS,5.87 ± 0.061
7,RRVVWSWNCLLSDMPRSHVL,1.51 ± 0.13
8,KINMLCFSWGSCVGGCRKVC,7.063 ± 0.055
9,VHPSDGAGLYS,-1.34 ± 0.78
10,WRVGVK,0.312 ± 0.25
11,YILCYTVNCNAELSHLVCDI,7.154 ± 0.058
12,SSPLVNRFPEGVYMNCK,-0.15 ± 0.49
13,CSWVRSLYNGIVLKKH,-0.652 ± 0.45
14,YVRNFPLGLSV,-1.63 ± 1.1
15,GGLTIAKFCESMVLLRFSRT,0.399 ± 0.32
16,RCGASSCNRLGPPMLNNRAM,-1.6 ± 0.75
17,EPMKSFSHNCLTQIST,-0.557 ± 1.1
18,RGFWRVFGCRHIVATPFEVE,8.675 ± 0.058
19,SIGGMMVPLISLKYSY,-0.784 ± 1.1
20,VFGYTSRR,3.49 ± 0.057
21,IFLCFGYYNLEVLCFDTRCQ,3.1 ± 0.064
22,LFLRLVNQMVLLIKEWNVWG,0.196 ± 0.3

row,Substance,amyloid nucleation score
1,NARITVLGSHPWLCPGKVSV,1.06 ± 0.54
2,VIGRYIDYC,-0.13 ± 0.27
3,WHCNFMHWVHKR,6.383 ± 0.06
4,LVVLWK,6.01 ± 0.061
5,ITILCLNVSMVYEVGQ,7.778 ± 0.042
6,GVSFSDYLSACCLDAGVSGY,0.773 ± 0.23
7,VYNFSFSNSNVK,6.669 ± 0.047
8,MCCGISMVFGDCSQVSVLIR,8.847 ± 0.047
9,CFNSTDN,inactive
10,RLCAWEVNPARSKAGAV,0.886 ± 0.57
11,VVPIGETR,1.49 ± 0.47
12,TWYPIAFKTGCEMLTERSM,6.435 ± 0.035
13,HAVDTHFADRGSLALKYSKC,1.19 ± 0.59
14,INVPCFRLKSSVGVISLQGT,0.205 ± 0.26
15,YCCPYYRKVLF,-0.559 ± 0.61
16,SFKISDYDECSCFKFYMAPI,7.08 ± 0.082
17,RVCPLLYYGRDLLQLTMSSM,0.314 ± 0.53
18,NWSVILYIRACTASNIEWLS,1.52 ± 0.44
19,LLFARK,-0.038 ± 1.1
20,IISSGSIDCVYWTWFLRY,-0.396 ± 0.55
21,LYTRMPMYGHSEKFLVCESS,-0.486 ± 0.27
22,SFDVWAALNENLPHISYFDQ,-0.14 ± 1.1

row,Substance,amyloid nucleation score
1,IIMNVVHEDSLL,0.019 ± 0.5
2,YTVWGKY,0.288 ± 0.53
3,RRVMRLWMALPCNDMIGCIQ,-0.476 ± 0.37
4,YVSNLEK,-0.073 ± 1
5,KYNDGEFIVVIVGILAYAVV,-0.238 ± 0.34
6,SCNNLGDLWLSIILVKSET,0.044 ± 1.1
7,IFRVLTGVIK,-0.277 ± 0.26
8,FQIREVGEVLNC,-0.202 ± 1.1
9,SRNRFHSYLMSRCNMWQLHY,0.287 ± 0.33
10,YVRAGRVNVILCVSENCIGG,8.27 ± 0.049
11,SVRVA,1.66 ± 0.26
12,LTRMKT,-0.311 ± 0.63
13,PILYGSNGVRFV,-1.05 ± 1.1
14,LFQLGASTR,0.147 ± 0.76
15,PYLGRFFSCLYTEWDTP,inactive
16,ESGVHWENTEVKGIYSYLCR,inactive
17,QFDWDRVYMFSTLPFCIWWV,-0.783 ± 0.35
18,SWYVGLCMYVPWYERRANGH,11.04 ± 0.067
19,SAKSNGVQ,1.16 ± 0.32
20,LVFMAFC,4.839 ± 0.04
21,LLTGVISGYQIRWGTTSLNG,2.49 ± 0.1
